From PMC2566859 (Nucleic Acids Research, 2008)

B1: TM1769, small subunit of Thermotoga maritima Exonuclease VII (XseB homolog) (natural protein, UniProt Q9X290 1-75, looked up)
chain: MNFEEMMKELEEIVNRLENEDLPLEESIKLFERGVELYRKCKEILQQNRLKIIDVMKELEGEIDASGRDQENELR
B2: TM1768, large subunit of Thermotoga maritima Exonuclease VII (XseA homolog) (enzyme, UniProt Q9X289 1-394, looked up)
chain: MKDYTYSVTEINEYIKDLIEGDPYLTNVSVYGEISGVRPRKGHIFFSLVEENARLECVIFGGDNMGIRLQEGRMALVEGSVSVYIPHGTYRFICSNVRYLDQAGMYQIKFETTLKKLLEEGLLSRPKKTVPRFPRKIGIITSRDSAALQDVIRTARERKAPIEIYVFHTSVQGDSAREELIKALRKANEYDLDLVMIVRGGGSKEDLWVFNEEDVIREILRLRHPVVTGIGHEIDRVIADFVADVSMHTPTGAAEYVIPDASEIHEDLDSFFEKLITSLSNRFDMEERRLETLYFRLRMIGRRKLELNEFKIERVKELAAKLRKKLMDYFEHNQKKLDSLGRMLESLNPLRPLERGFVLVKKDEKIVKESTDLKRGDVVSLVFKDGTKKAQVIG

How the values were obtained:
[1] = target: the molecule itself; assay: SEC
[2] = target: B1; assay: SEC

Binder | stoichiometry N [1] | stoichiometry N [2] [TM1769 per TM1768]
B1 | 4 | –
B2 | – | ~4
